Measured values taken from publication PMC4077619, “Split luciferase complementation assay to detect regulated protein-protein interactions in rice protoplasts in a large-scale format” (Rice, 2014).

Biological target: T1, CRLuc-H2B (Arabidopsis HISTONE 2B fused to the C-terminal fragment of Renilla luciferase) (Arabidopsis, UniProt Q9FFC0 1-145)
T1 construct: Arabidopsis HISTONE 2B (H2B), locus AT5G22880; cDNA inserted in a pDuEx vector; source: rice protoplasts, transformed (PEG) with a pDuEx vector (35S promoter), in cells
Assay: split reporter (BiFC, NanoBiT); split Renilla luciferase complementation in living rice protoplasts, 96-well plate, W5 buffer, ViviRen substrate, RLU read 16 h after transformation; no hormone added (before the hormone or with W5 buffer only); H2A-H2B also tested with GA3 (Figure S1), RLU not increased
Conditions: partners not purified

T1 sequence (Q9FFC0 whole entry, the tested form may be a part): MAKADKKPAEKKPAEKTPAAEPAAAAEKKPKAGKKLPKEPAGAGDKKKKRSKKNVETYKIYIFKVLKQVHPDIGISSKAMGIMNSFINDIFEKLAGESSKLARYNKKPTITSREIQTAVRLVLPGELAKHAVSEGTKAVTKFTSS

fold RLU over a non-interaction protein pair: 10 fold | fold RLU over mock transformed protoplasts: 21 fold
B1: NRLuc-H2A (Arabidopsis HISTONE 2A fused to the N-terminal fragment of Renilla luciferase) (natural protein)
chain: not shown
notes: Arabidopsis HISTONE 2A (H2A), locus AT4G27230; cDNA inserted in a pDuEx vector; source: rice protoplasts, transformed (PEG) with a pDuEx vector (35S promoter), in cells
